# Laboratory results published in patent US20210403595 (published 2021).
# Like-named read-outs stand apart in the source and are kept apart here.
# T1: cynomolgus CD3 on T cells (cynomolgus monkey)
# T1 chain: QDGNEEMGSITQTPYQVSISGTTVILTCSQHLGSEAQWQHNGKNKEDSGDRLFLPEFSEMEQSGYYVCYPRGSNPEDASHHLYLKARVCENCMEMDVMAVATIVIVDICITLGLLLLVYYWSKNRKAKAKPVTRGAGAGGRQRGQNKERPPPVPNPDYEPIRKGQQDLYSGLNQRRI
# Assays:
# [1] = target: human CD3 on Jurkat cells (human); experiment: FACS
# [2] = target: T1, cynomolgus CD3 on T cells; experiment: FACS
# [3] = target: human CD3 epsilon/delta heterodimer, Fc-tagged (human); experiment: SPR, 37C
# human PSMA on cells = human PSMA on cells (human); experiment: FACS, B16F10.9/PSMA
# [4] = target: human CD3 on Jurkat cells (human); experiment: FACS; remark: listed apart in the source
# Sequence of human CD3 on Jurkat cells (human) (chain, as listed by the source, chain 1 of 2): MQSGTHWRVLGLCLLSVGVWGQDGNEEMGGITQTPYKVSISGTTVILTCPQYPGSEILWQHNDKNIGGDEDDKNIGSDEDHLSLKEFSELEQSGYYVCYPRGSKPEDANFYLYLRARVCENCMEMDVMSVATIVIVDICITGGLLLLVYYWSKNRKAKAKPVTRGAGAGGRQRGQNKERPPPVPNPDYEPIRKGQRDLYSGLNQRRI
# Sequence of human CD3 on Jurkat cells (human) (chain, as listed by the source, chain 2 of 2): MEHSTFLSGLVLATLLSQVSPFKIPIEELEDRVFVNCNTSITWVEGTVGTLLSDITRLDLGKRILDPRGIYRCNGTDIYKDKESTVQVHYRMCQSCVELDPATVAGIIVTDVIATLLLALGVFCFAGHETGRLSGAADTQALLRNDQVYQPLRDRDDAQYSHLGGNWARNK
# Sequence of human CD3 epsilon/delta heterodimer, Fc-tagged (human) (chain, as listed by the source mutant, chain 1 of 2): as the sequence (chain, as listed by the source, chain 1 of 2) above
# Sequence of human CD3 epsilon/delta heterodimer, Fc-tagged (human) (chain, as listed by the source mutant, chain 2 of 2): as the sequence (chain, as listed by the source, chain 2 of 2) above
# Sequence of human PSMA on cells (human) (A4UU12 whole entry): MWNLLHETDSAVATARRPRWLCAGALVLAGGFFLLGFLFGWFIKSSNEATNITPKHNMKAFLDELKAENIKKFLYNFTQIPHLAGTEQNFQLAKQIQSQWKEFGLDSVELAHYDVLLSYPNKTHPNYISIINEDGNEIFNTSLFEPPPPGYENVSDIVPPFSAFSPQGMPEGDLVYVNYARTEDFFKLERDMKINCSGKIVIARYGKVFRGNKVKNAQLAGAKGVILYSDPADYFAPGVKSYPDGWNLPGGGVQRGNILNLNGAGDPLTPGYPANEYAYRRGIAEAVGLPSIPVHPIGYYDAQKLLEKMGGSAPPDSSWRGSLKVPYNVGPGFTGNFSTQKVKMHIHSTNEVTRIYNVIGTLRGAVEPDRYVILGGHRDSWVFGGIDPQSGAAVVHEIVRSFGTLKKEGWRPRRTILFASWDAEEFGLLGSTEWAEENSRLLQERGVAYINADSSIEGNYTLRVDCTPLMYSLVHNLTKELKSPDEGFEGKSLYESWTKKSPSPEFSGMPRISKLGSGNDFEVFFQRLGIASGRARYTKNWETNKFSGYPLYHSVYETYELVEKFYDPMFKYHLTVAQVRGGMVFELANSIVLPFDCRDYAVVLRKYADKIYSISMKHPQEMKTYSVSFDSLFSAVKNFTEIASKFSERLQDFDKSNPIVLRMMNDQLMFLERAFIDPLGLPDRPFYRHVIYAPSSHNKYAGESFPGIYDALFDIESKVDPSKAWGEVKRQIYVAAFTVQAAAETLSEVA
binder,measurement,setting,value
"BSPSMA/CD3-1900 CD3 arm (antibody, V domains shown) VH: EVQLVESGGGLVQPGRSLRLSCAASGFTFDDYSMHWVRQAPGKGLEWVSGISWNSGSIGYADSVKGRFTISRDNAKNSLYLQMNSLRAEDTALYYCAKDGSGYGKFYHYGMDVWGQGTTVTVSS VL: not shown",EC50,[1],60.7 nM
same,binding result,[2],no binding
same,Kd,[3],115 nM
"BSPSMA/CD3-1400 PSMA arm (antibody, V domains shown) VH: QVQLVESGGGVVQPGRSLRLSCAASGFTFSSYGMHWVRQAPGKGLEWVAVISYAGNNKYYADSVKGRFTVSRDNSKKTLYLQMNSLRSEDTAVYYCAKDSYYDFLTDPDVLDIWGQGTMVTVSS VL: not shown",EC50,human PSMA on cells,1.3 nM
"BSPSMA/CD3-2100 PSMA arm (antibody, V domains shown) VH: QVQLVESGGGVVQPGRSLRLSCAASGFTFSSYGMHWVRQAPGKGLEWVAVISYAGNNKYYADSVKGRFTVSRDNSKKTLYLQMNSLRSEDTAVYYCAKDSYYDFLTDPDVLDIWGQGTMVTVSS VL: not shown",EC50,human PSMA on cells,1.14 nM
"BSPSMA/CD3-900 CD3 arm (antibody, V domains shown) VH: EVQLVESGGGLVQPGRSLRLSCAASGFTFDDYSMHWVRQAPGKGLEWVSGISWNSGSKGYADSVKGRFTISRDNAKNSLYLQMNSLRAEDTALYYCAKDGSGYGKFYHYGLDVWGQGTTVTVSS VL: not shown",EC50,[1],274 nM
same,binding result,[2],no binding
same,Kd,[3],113 nM
"BSPSMA/CD3-2100 CD3 arm (antibody, V domains shown) VH: EVQLVESGGGLVQPGRSLRLSCAASGFTFDDYSMHWVRQAPGKGLEWVSGISWNSGSKGYADSVKGRFTISRDNAKNSLYLQMNSLRAEDTALYYCAKDGSGYGKFYYYGMDVWGQGTTVTVSS VL: not shown",EC50,[1],106 nM
same,binding result,[2],no binding
same,Kd,[3],77.5 nM
"BSPSMA/CD3-1200 CD3 arm (antibody, V domains shown) VH: EVQLVESGGGLVQPGRSLRLSCAASGFTFDDYSMHWVRQAPGKGLEWVSGISWNSGSIGYADSVKGRFTISRDNAKNSLYLQMNSLRAEDTALYYCAKDGSGYGKFYHYGLDVWGQGTTVTVSS VL: not shown",EC50,[1],47.2 nM
same,binding result,[2],no binding
same,Kd,[3],64.2 nM
"BSPSMA/CD3-400 PSMA arm (antibody, V domains shown) VH: QVQLVESGGGVVQPGRSLRLSCAASGFTFSSYGMHWVRQAPGKGLEWVAVISYAGNNKYYADSVKGRFTVSRDNSKKTLYLQMNSLRSEDTAVYYCAKDSYYDFLTDPDVLDIWGQGTMVTVSS VL: not shown",EC50,human PSMA on cells,1.72 nM
"BSPSMA/CD3-001 CD3 arm (antibody, V domains shown) VH: EVQLVESGGGLVQPGRSLRLSCVASGFTFADFTMHWVRQAPGKGLEWVSGISWNSNSIDYADSVKGRFTISRDNAKKSLFLQMSSLRAEDTALYYCVKDRSGYSRFYYGMDVWGQGTTVTVSS VL: EIVMTQSPATLSVSPGERAILSCRASQNINSNLAWYQQKPGQAPRLLIYGASTRATGVPARFSGSGSGTEFTLTIRSLQSEDFAVYYCQQYYNWPITFGHGTRLEIK",EC50,[1],39.1 nM
"BSPSMA/CD3-300 PSMA arm (antibody, V domains shown) VH: QVQLVESGGGVVQPGRSLRLSCAASGFTFSSYGMHWVRQAPGKGLEWVAVISYAGNNKYYADSVKGRFTVSRDNSKKTLYLQMNSLRSEDTAVYYCAKDSYYDFLTDPDVLDIWGQGTMVTVSS VL: not shown",EC50,human PSMA on cells,1.9 nM
"BSPSMA/CD3-800 PSMA arm (antibody, V domains shown) VH: QVQLVESGGGVVQPGRSLRLSCAASGFTFSSYGMHWVRQAPGKGLEWVAVISYAGNNKYYADSVKGRFTVSRDNSKKTLYLQMNSLRSEDTAVYYCAKDSYYDFLTDPDVLDIWGQGTMVTVSS VL: not shown",EC50,human PSMA on cells,1.31 nM
"BSPSMA/CD3-1600 CD3 arm (antibody, V domains shown) VH: EVQLVESGGGLVQPGRSLRLSCAASGFTFDDYSMHWVRQAPGKGLEWVSGISWNSGSKGYADSVKGRFTISRDNAKNSLYLQMNSLRAEDTALYYCAKDGSGYGKFYHYGMDVWGQGTTVTVSS VL: not shown",EC50,[1],56.8 nM
same,binding result,[2],no binding
same,Kd,[3],37.8 nM
"H1H5786B (antibody, V domains shown) VH: QVQLVESGAEVKKPGASVKVSCKTSGYTFTGYYMHWIRQAPGQGLEWMGWINPKSGGTNYAQKFQGRVTMTRDTSISTAYMELSRLRSDDMAVYYCARMGDGAVFDFWGQGTLVTVSS VL: AIQMTQSPSSLSASVGDRVTITCRASQRISSFLNWYQQKPGKAPKLLIYTASNLQNGVPSRFSGSGSGTDFTLTISSLQPEDFATYYCQQSYRTPLTFGGGTKVEIKR",EC50,[4],1.1 nM
"BSPSMA/CD3-1300 PSMA arm (antibody, V domains shown) VH: QVQLVESGGGVVQPGRSLRLSCAASGFTFSSYGMHWVRQAPGKGLEWVAVISYAGNNKYYADSVKGRFTVSRDNSKKTLYLQMNSLRSEDTAVYYCAKDSYYDFLTDPDVLDIWGQGTMVTVSS VL: not shown",EC50,human PSMA on cells,1.25 nM
"BSPSMA/CD3-1600 PSMA arm (antibody, V domains shown) VH: QVQLVESGGGVVQPGRSLRLSCAASGFTFSSYGMHWVRQAPGKGLEWVAVISYAGNNKYYADSVKGRFTVSRDNSKKTLYLQMNSLRSEDTAVYYCAKDSYYDFLTDPDVLDIWGQGTMVTVSS VL: not shown",EC50,human PSMA on cells,1.03 nM
"BSPSMA/CD3-1500 PSMA arm (antibody, V domains shown) VH: QVQLVESGGGVVQPGRSLRLSCAASGFTFSSYGMHWVRQAPGKGLEWVAVISYAGNNKYYADSVKGRFTVSRDNSKKTLYLQMNSLRSEDTAVYYCAKDSYYDFLTDPDVLDIWGQGTMVTVSS VL: not shown",EC50,human PSMA on cells,1.21 nM
"BSPSMA/CD3-1000 CD3 arm (antibody, V domains shown) VH: EVQLVESGGGLVQPGRSLRLSCAASGFTFDDYSMHWVRQAPGKGLEWVSGISWNSGSKGYADSVKGRFTISRDNAKNSLYLQMNSLRAEDTALYYCAKYGSGYGKFYYYGLDVWGQGTTVTVSS VL: not shown",EC50,[1],277 nM
same,binding result,[2],no binding
same,Kd,[3],185 nM
"BSPSMA/CD3-1700 PSMA arm (antibody, V domains shown) VH: QVQLVESGGGVVQPGRSLRLSCAASGFTFSSYGMHWVRQAPGKGLEWVAVISYAGNNKYYADSVKGRFTVSRDNSKKTLYLQMNSLRSEDTAVYYCAKDSYYDFLTDPDVLDIWGQGTMVTVSS VL: not shown",EC50,human PSMA on cells,1.34 nM
"BSPSMA/CD3-1500 CD3 arm (antibody, V domains shown) VH: EVQLVESGGGLVQPGRSLRLSCAASGFTFDDYSMHWVRQAPGKGLEWVSGISWNSGSKGYADSVKGRFTISRDNAKNSLYLQMNSLRAEDTALYYCAKDGSGYGKFYYYGLDVWGQGTTVTVSS VL: not shown",EC50,[1],93 nM
same,binding result,[2],no binding
same,Kd,[3],82.9 nM
"BSPSMA/CD3-900 PSMA arm (antibody, V domains shown) VH: QVQLVESGGGVVQPGRSLRLSCAASGFTFSSYGMHWVRQAPGKGLEWVAVISYAGNNKYYADSVKGRFTVSRDNSKKTLYLQMNSLRSEDTAVYYCAKDSYYDFLTDPDVLDIWGQGTMVTVSS VL: not shown",EC50,human PSMA on cells,1.43 nM
"BSPSMA/CD3-004 PSMA arm (antibody, V domains shown) VH: QVQLVESGGGVVQPGRSLRLSCAASGFTFSSYGMHWVRQAPGKGLEWVAVISYAGNNKYYADSVKGRFTVSRDNSKKTLYLQMNSLRSEDTAVYYCAKDSYYDFLTDPDVLDIWGQGTMVTVSS VL: not shown",EC50,human PSMA on cells,1.31 nM
"BSPSMA/CD3-003 PSMA arm (antibody, V domains shown) VH: QVQLVESGGGVVQPGRSLRLSCAASGFTFSSYGMHWVRQAPGKGLEWVAVISYAGNNKYYADSVKGRFTVSRDNSKKTLYLQMNSLRSEDTAVYYCAKDSYYDFLTDPDVLDIWGQGTMVTVSS VL: not shown",EC50,human PSMA on cells,2.26 nM
"BSPSMA/CD3-1200 PSMA arm (antibody, V domains shown) VH: QVQLVESGGGVVQPGRSLRLSCAASGFTFSSYGMHWVRQAPGKGLEWVAVISYAGNNKYYADSVKGRFTVSRDNSKKTLYLQMNSLRSEDTAVYYCAKDSYYDFLTDPDVLDIWGQGTMVTVSS VL: not shown",EC50,human PSMA on cells,1.16 nM
"BSPSMA/CD3-1100 PSMA arm (antibody, V domains shown) VH: QVQLVESGGGVVQPGRSLRLSCAASGFTFSSYGMHWVRQAPGKGLEWVAVISYAGNNKYYADSVKGRFTVSRDNSKKTLYLQMNSLRSEDTAVYYCAKDSYYDFLTDPDVLDIWGQGTMVTVSS VL: not shown",EC50,human PSMA on cells,1.03 nM
"BSPSMA/CD3-1900 PSMA arm (antibody, V domains shown) VH: QVQLVESGGGVVQPGRSLRLSCAASGFTFSSYGMHWVRQAPGKGLEWVAVISYAGNNKYYADSVKGRFTVSRDNSKKTLYLQMNSLRSEDTAVYYCAKDSYYDFLTDPDVLDIWGQGTMVTVSS VL: not shown",EC50,human PSMA on cells,1.35 nM
"BSPSMA/CD3-1800 PSMA arm (antibody, V domains shown) VH: QVQLVESGGGVVQPGRSLRLSCAASGFTFSSYGMHWVRQAPGKGLEWVAVISYAGNNKYYADSVKGRFTVSRDNSKKTLYLQMNSLRSEDTAVYYCAKDSYYDFLTDPDVLDIWGQGTMVTVSS VL: not shown",EC50,human PSMA on cells,2.16 nM
"BSPSMA/CD3-1000 PSMA arm (antibody, V domains shown) VH: QVQLVESGGGVVQPGRSLRLSCAASGFTFSSYGMHWVRQAPGKGLEWVAVISYAGNNKYYADSVKGRFTVSRDNSKKTLYLQMNSLRSEDTAVYYCAKDSYYDFLTDPDVLDIWGQGTMVTVSS VL: not shown",EC50,human PSMA on cells,1.19 nM
"BSPSMA/CD3-005 PSMA arm (antibody, V domains shown) VH: QVQLVESGGGVVQPGRSLRLSCAASGFTFSSYGMHWVRQAPGKGLEWVAVISYAGNNKYYADSVKGRFTVSRDNSKKTLYLQMNSLRSEDTAVYYCAKDSYYDFLTDPDVLDIWGQGTMVTVSS VL: not shown",EC50,human PSMA on cells,2.09 nM
"BSPSMA/CD3-200 PSMA arm (antibody, V domains shown) VH: QVQLVESGGGVVQPGRSLRLSCAASGFTFSSYGMHWVRQAPGKGLEWVAVISYAGNNKYYADSVKGRFTVSRDNSKKTLYLQMNSLRSEDTAVYYCAKDSYYDFLTDPDVLDIWGQGTMVTVSS VL: not shown",EC50,human PSMA on cells,1.88 nM
